Laboratory results from patent US9266964.
Numbering of substitutions follows the chain as printed. Values belong to the binder of their own block, whether it stands above or below them.

Columns and labels:
human plasma kallikrein [1] = biological target: T1, human plasma kallikrein (human, UniProt P03952 20-390; P03952 391-638); experiment: ELISA; signal on coated biotinylated human plasma kallikrein divided by signal on streptavidin; Fab
T1 construct: two disulfide-linked chains; also called pKal; human pKal
Description: Abbreviations used: "T/B" is the ELISA signal obtained using of the target (biotinylated plasma kallikrein) divided by the ELISA signal of the "background" (streptavidin); both of which were coated on microtiter plates. "nd" is not determined. The symbol "q" refers to the amber suppressible stop codon (TAG), which is translated as glutamine (Q) in strains of E. coli such as the TG1 cells that were used to express the Fab fragments.
T1 sequence (P03952 20-390, chain 1 of 2): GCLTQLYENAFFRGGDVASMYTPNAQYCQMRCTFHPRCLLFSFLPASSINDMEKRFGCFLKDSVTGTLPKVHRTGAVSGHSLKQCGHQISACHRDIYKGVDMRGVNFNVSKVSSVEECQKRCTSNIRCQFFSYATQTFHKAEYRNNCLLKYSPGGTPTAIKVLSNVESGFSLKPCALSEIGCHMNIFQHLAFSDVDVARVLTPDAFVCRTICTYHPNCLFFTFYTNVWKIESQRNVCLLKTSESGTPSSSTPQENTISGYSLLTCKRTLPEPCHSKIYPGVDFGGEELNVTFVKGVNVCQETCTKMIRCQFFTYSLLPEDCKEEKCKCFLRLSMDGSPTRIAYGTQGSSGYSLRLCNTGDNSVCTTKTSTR
T1 sequence (P03952 391-638, chain 2 of 2): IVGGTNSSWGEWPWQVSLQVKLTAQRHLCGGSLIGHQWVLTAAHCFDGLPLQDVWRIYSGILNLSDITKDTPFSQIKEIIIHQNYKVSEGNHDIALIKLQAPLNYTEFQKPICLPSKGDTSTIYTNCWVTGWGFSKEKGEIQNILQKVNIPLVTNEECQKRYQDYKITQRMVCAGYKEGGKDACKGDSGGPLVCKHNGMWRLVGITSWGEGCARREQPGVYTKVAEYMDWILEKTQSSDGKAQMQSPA

human plasma kallikrein [2] = biological target: human plasma kallikrein (human, UniProt P03952 20-390; P03952 391-638); experiment: cell-based or functional assay
Target sequence in this assay (P03952 20-390, chain 1 of 2): as the sequence (P03952 20-390, chain 1 of 2) above
Target sequence in this assay (P03952 391-638, chain 2 of 2): as the sequence (P03952 391-638, chain 2 of 2) above

Human pKal ELISA (T/B) (human plasma kallikrein [1]): 5.3 T/B (target signal / background signal)
B1: M10-C11 (Fab, V domains shown)
VH: EVQLLESGGGLVQPGGSLRLSCAASGFTFSMYPMMWVRQAPGKGLEWVSYISPSGGMTDYADSVKGRFTISRDNSKNTLYLQMNSLRAEDMAVYYCARVAGSSDAFDIWGQGTMVTVSS
VL: DIQMTQSPSSLSASVGDRVTITCRASQSISIYLNWYQQKPEKAPKLLIFAASTLQSGVPSRFSGSGSGTDFTLTISNLQPEDFATYYCQQSHSIPPTFGLGTKVEVK
notes: Fab fragment (E. coli TG1); printed HC runs into the start of CH1

% inhibition at 10 nM (human plasma kallikrein [2]): 36.3%
B2: M202-A10 (Fab, V domains shown)
VH: EVQLLESGGGLVQPGGSLRLSCAASGFTFSHYIMMWVRQAPGKGLEWVSGIYSSGGITVYADSVKGRFTISRDNSKNTLYLQMNSLRAEDTAVYYCAFRRTGIPRRDSFDIWGQGTMVTVSS
VL: DIQMTQSPSTLSASVGDRVTITCRASQSISSWLAWYQQKPGKAPNLLIYKASTLESGVPSRFSGSGSGTEFTLTISSLQPDDFATYYCQQYNTYWTFGQGTKVEIK

% inhibition at 10 nM (human plasma kallikrein [2]): 13.8%
B3: M198-A01 (Fab, V domains shown)
VH: EVQLLESGGGLVQPGGSLRLSCAASGFTFSPYTMIWVRQAPGKLGEWVSSISSSGGMTPYADSVKGRFTISRDNSKNTLYLQMNSLRAEDTAVYYCAYRRTGIPRRDAFDIWGQGTMVTVSS
VL: B2 VL

% inhibition at 10 nM (human plasma kallikrein [2]): 15.7%
B4: M201-F11 (Fab, V domains shown)
VH: B2 VH with F98Y, T101S, S108A
VL: B2 VL

% inhibition at 10 nM (human plasma kallikrein [2]): 19.2%
B5: M197-G11 (Fab, V domains shown)
VH: B2 VH with H31T, I33A, M35V, G50S, S53P, V59T, F98Y, S108A
VL: B2 VL

Human pKal ELISA (T/B) (human plasma kallikrein [1]): 33.7 T/B (target signal / background signal)
B6: M10-A03 (Fab, V domains shown)
VH: EVQLLESGGGLVQPGGSLRLSCAASGFTFSPYPMQWVRQAPGKGLEWVSSISSSGGMTEYADSVKGRFTISRDNSKNTLYLQMNSLRAEDTAVYYCARDDYGGKGGAFDIWGQGTMVTVSS
VL: DIQMTQSPSSLSASVGDRVTITCRASQRISFYLNWFQQKPGKAPNLLIYGASSLQSGVPSRFSGSGSGTDFTLTISSLQPKDFGTYYCQQTFSTPNTFGQGTKLEIK
notes: as for B1

Human pKal ELISA (T/B) (human plasma kallikrein [1]): 35.9 T/B (target signal / background signal)
B7: M9-D08 (Fab, V domains shown)
VH: EVQLLESGGGLVQPGGSLRLSCAASGFTFSWYKMMWVRQAPGKGLEWVSSIYPSGGWTNYADSVKGRFTISRDNSKNTLYLQMNSLRAEDTAVYYCTRGSPWGDDAFDIWGQGTMVTVSS
VL: DIQMTQSPSSLSASVGDRVTLTCRASRTISFYLNWYQQKAGKAPELLIYGGSSLHSGVPSRFSGSGSGTDFSLTISNLQPEDIAVYYCQQSFSSPWTFGQGTKVEIK
notes: as for B1

Human pKal ELISA (T/B) (human plasma kallikrein [1]): 7.1 T/B (target signal / background signal)
B8: M10-G09 (Fab, V domains shown)
VH: EVQLLESGGGLVQPGGSLRLSCAASGFTFSQYGMQWVRQAPGKGLEWVSSIRSSGGATRYADSVKGRFTISRDNSKNTLYLQMNSLRAEDTAVYYCARDGYYDSSGYPDYWGQGTLVTVSS
VL: DIQMTQSPSSLSASVGDSVTITCRASQSISGYINWYQQKAGKAPKLLIYAASSLQSGVPSRFSGSGSGTHFTLTISSLQPEDFATYYCQQYVSYPFTFGPGTKVDIK
notes: as for B1

Human pKal ELISA (T/B) (human plasma kallikrein [1]): 8.4 T/B (target signal / background signal)
B9: M9-F10 (Fab, V domains shown)
VH: EVQLLESGGGLVQPGGSLRLSCAASGFTFSDYDMEWVRQAPGKGLEWVSSISPSGGSTIYADSVKGRFTISRDNSKNTLYLQMNSLRAEDTAVYYCARQGLLTAFDIWGQGTMVTVSS
VL: DIQMTQSPSSLSASVGDRVTITCRASQSINTYLNWYQQKPGKAPKVLIHAASTLESGVPSRFSGSGSGTDFTLTISSLQPEDFATYYCQQSYSTPYTFGQGTKLEVR
notes: as for B1

Human pKal ELISA (T/B) (human plasma kallikrein [1]): 6.4 T/B (target signal / background signal)
B10: M10-D11 (Fab, V domains shown)
VH: EVQLLESGGGLVQPGGSLRLSCAASGFTFSAYPMNWVRQAPGKGLEWVSRISSSGGNTSYADSVKGRFTISRDNSKNTLYLQMNSLRAEDTAVYYCALGYLGYWGQGTLVTVSS
VL: not shown
notes: as for B1

Human pKal ELISA (T/B) (human plasma kallikrein [1]): 4.8 T/B (target signal / background signal)
B11: M10-F09 (Fab, V domains shown)
VH: EVQLLESGGGLVQPGGSLRLSCAASGFTFSNYDMMWVRQAPGKGLEWVSYISPSGGFTRYADSVKGRFTISRDNSKNTLYLQMNSLRAEDTATYYCAKDIYYYNWGPSHYFDSWGQGTLVTVSS
VL: DIQMTQSPSSLSASVGDRVTITCRASQTIDDDLIWYQQKPGRAPKLLIYAASSLQSGVPSRFSGSGSGTDFTLTITSLQPEDFATYYCQQSYNIPRTFGQGTKLESK
notes: as for B1

Human pKal ELISA (T/B) (human plasma kallikrein [1]): 10.9 T/B (target signal / background signal)
B12: M9-F08 (Fab, V domains shown)
VH: EVQLLESGGGLVQPGGSLRLSCAASGFTFSPYAMTWVRQAPGKGLEWVSVIYPSGGFTDYADSVKGRFTISRDNSKNTLYLQMNSLRAEDTAMYYCARASGSYLDAFDIWGQGTMVTVSS
VL: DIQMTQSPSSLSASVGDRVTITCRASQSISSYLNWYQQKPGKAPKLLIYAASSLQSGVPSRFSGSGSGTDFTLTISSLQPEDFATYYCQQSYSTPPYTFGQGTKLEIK
notes: Fab fragment (E. coli TG1); printed HC runs into the start of CH1; The LC is printed with an amber codon 'q' (MTqSPS), written here as Q

Human pKal ELISA (T/B) (human plasma kallikrein [1]): 32.8 T/B (target signal / background signal)
B13: M10-E06 (Fab, V domains shown)
VH: EVQLLESGGGLVQPGGSLRLSCAASGFTFSLYRMFWVRQAPGKGLEWVSSIWSSGGPTMYADSVKGRFTISRDNSKNTLYLQMNSLRAEDTAVYYCAREYPSTYYFDYWGQGTLVTVSS
VL: DIQMTQSPSSLSASVGDRVTITCRASQSISTYLNWYQQKPGKAPKLLIYGASSLQSGVPSRFSGSGSGTDFTLTISSLQPEDFTIYYCQQSYSDPYTFGQGTKLDIK
notes: as for B1

Human pKal ELISA (T/B) (human plasma kallikrein [1]): 7.8 T/B (target signal / background signal)
B14: M9-C10 (Fab, V domains shown)
VH: EVQLLESGGGLVQPGGSLRLSCAASGFTFSLYPMQWVRQAPGKGLEWVSSIGSSGGMTFYADSVKGRFTISRDNSKNTLYLQMNSLRAEDTAVYYCTREVGAAGFAFDIWGQGTMVTVSS
VL: DIQMTQSPSSLSASVGDRVTITCRASQGISSYLNWYQQKPGNAPNLLIYGASSLQSGVPSRFSGSGSGTDFTLTISSLQPEDFATYYCQESYSTLFTFGPGTTVEIK
notes: as for B1

Human pKal ELISA (T/B) (human plasma kallikrein [1]): 14.1 T/B (target signal / background signal)
B15: M10-B09 (Fab, V domains shown)
VH: EVQLLESGGGLVQPGGSLRLSCAASGFTFSWYEMSWVRQAPGKGLEWVSRIWPSGGVTMYADSVKGRFTISRDNSKNTLYLQMNSLRAEDTAVYYCTRTSITTVGMDVWGQGTTVTVSS
VL: DIQMTQSPSSLSASVGDGVTITCRASQSISTYLNWYQQRPGKAPKLLIYGASSLQSGVPSRFSGSGSGTDFTLTISSLQREDFATYYCQQSFSTPWTFGQGTRVEIK
notes: Fab fragment (E. coli TG1); printed HC runs into the start of CH1; The HC is printed with an amber codon 'q' (LqMNSL), written here as Q

Human pKal ELISA (T/B) (human plasma kallikrein [1]): 5.5 T/B (target signal / background signal)
B16: M9-A08 (Fab, V domains shown)
VH: EVQLLESGGGLVQPGGSLRLSCAASGFTFSAYEMWWVRQAPGKGLEWVSYIGSSGGSTSYADSVKGRFTISRDNSKNTLYLQMNSLRAEDTAVYYCTGGNSSSFDAFDIWGQGTMVTVSS
VL: DIQMTQSPSSLSASVGDRVTVTCRASQRISTYLNWYQQKPGKAPKLLISGASSLQSGVPSRFSGSGSGTDFTLTISSLQPDDFATYYCQQSYNTPRTFGQGTKVEIR
notes: as for B1

Human pKal ELISA (T/B) (human plasma kallikrein [1]): 20.8 T/B (target signal / background signal)
B17: M10-A12 (Fab, V domains shown)
VH: EVQLLESGGGLVQPGGSLRLSCAASGFTFSLYLMHWVRQAPGKGLEWVSSIYSSGGFTTYADSVKGRFTISRDNSKNTLYLQMNSLRAEDTAVYYCARDTDYGMDVWGQGTTVTVSS
VL: DIQMTQSPLSLSAFVGDRVTITCRASRDISVYLNWYQLKSGKAPKLLIYGASSLQSGVPSRFSGSGSGTDFTLTITSLQPEDFATYYCQQSYSIPFTFGGGTKVETK
notes: as for B1

Human pKal ELISA (T/B) (human plasma kallikrein [1]): 3.5 T/B (target signal / background signal)
B18: M9-H02 (Fab, V domains shown)
VH: EVQLLESGGGLVQPGGSLRLSCAASGFTFSAYMMIWVRQAPGKGLEWVSVIYPSGGVTMYADSVKGRFTISRDNSKNTLYLQMNSLRAEDTAVYYCARGTVGASDAFDIWGQGTMVTVSS
VL: DIQMTQSPSSLSASVGDRVIITCRASRSIATYLNWYQQKPGKAPNLLIFGASTLQSGVPSRFSGSGSGTDFTLTISDLQPEDFATYYCQQSFSDPYTFGQGTNLEMK
notes: as for B1

Human pKal ELISA (T/B) (human plasma kallikrein [1]): 7 T/B (target signal / background signal)
B19: M9-F09 (Fab, V domains shown)
VH: EVQLLESGGGLVQPGGSLRLSCAASGFTFSSYPMGWVRQAPGKGLEWVSRISSSGGMTIYADSVKGRFTISRDNSKNTLYLQMNSLRAEDTAVYYCARDDWNVGMDVWGQGTTVTVSS
VL: DIQMTQSPSSLSASVGDRVTITCRASQSISSYLNWYQQKPGKAPKLLIYAASSLQSGVPSKFSGSGSGTDYTLTISSLQPEDFATYYCQQTYTTPWTFGQGTKVEIK
notes: as for B1

Human pKal ELISA (T/B) (human plasma kallikrein [1]): 10.9 T/B (target signal / background signal)
B20: M9-C08 (Fab, V domains shown)
VH: EVQLLESGGGLVQPGGSLRLSCAASGFTFSHYGMVWVRQAPGKGLEWVSYIVPSGGLTYYADSVKGRFTISRDNSKNTLYLQMNSLRAEDTAVYYCARVDYTGDGLGYWGQGTLVTVSS
VL: DIQMTQSPSSLSASVGDRVTITCRASQSISIYVNWYQQKPGKAPNLLIFAASSLQRGVPSRFSGSGSGADFTLTISSLQPEDFATYYCQQSFSTPLTFGGGTKVEIK
notes: as for B1

Human pKal ELISA (T/B) (human plasma kallikrein [1]): 18.8 T/B (target signal / background signal)
B21: M9-E04 (Fab, V domains shown)
VH: EVQLLESGGGLVQPGGSLRLSCAASGFTFSEYDMMWVRQAPGKGLEWVSSIGSSGGMTYYADSVKGRFTISRDNSKNTLYLQMNSLRAEDTAVYYCARDQVAAAAIDYWGQGTLVTVSS
VL: DIQMIQSPSSLSASVGDRVTITCRASQSISGYLNWYQQRSGKAPKLLIFAASNLQTGVPSRFSGSGSGTDFTLTINNLQPEDFATYYCQQSHTPPKTFGPGTKVDIK
notes: as for B1

Human pKal ELISA (T/B) (human plasma kallikrein [1]): 16.1 T/B (target signal / background signal)
B22: M9-H04 (Fab, V domains shown)
VH: EVQLLESGGGLVQPGGSLRLSCAASGFTFSAYTMWWVRQAPGKGLEWVSSIWPSGGSTFYADSVKGRFTISRDNSKNTLYLQMNSLRAEDTAVYYCARTYDSSAGEVDYWGQGTLVTVSS
VL: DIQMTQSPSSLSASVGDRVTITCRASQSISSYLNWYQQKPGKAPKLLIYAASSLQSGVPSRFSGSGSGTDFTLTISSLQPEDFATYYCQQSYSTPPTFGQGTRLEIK
notes: as for B1

Human pKal ELISA (T/B) (human plasma kallikrein [1]): 4.8 T/B (target signal / background signal)
B23: M9-G08 (Fab, V domains shown)
VH: EVQLLESGGGLVQPGGSLRLSCAASGFTFSYYTMLWVRQAPGKGLEWVSSIYPSGGFTMYADSVKGRFTISRDNSKNTLYLQMNSLRAEDTAVYYCARVDTAMAMIDYWGQGTLVTVSS
VL: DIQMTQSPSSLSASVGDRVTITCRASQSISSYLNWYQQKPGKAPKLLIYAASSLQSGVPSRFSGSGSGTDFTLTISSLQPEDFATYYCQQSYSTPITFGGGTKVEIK
notes: as for B1

Human pKal ELISA (T/B) (human plasma kallikrein [1]): 4.4 T/B (target signal / background signal)
B24: M9-H03 (Fab, V domains shown)
VH: EVQLLESGGGLVQPGGSLRLSCAASGFTFSWYSMGWVRQAPGKGLEWVSYIVPSGGYTMYADSVKGRFTISRDNSKNTLYLQMNSLRAEDTAVYYCARDPGVSYYYYGMDVWGQGTTVTVSS
VL: QYELTQAPSVSVAPGQTASITCSGDKLGNRYTSWYQQKPGQSPVLVIFQDNKRPSGIPERFSGSNSGNTATLTISGTQAMDEADYYCQALDSNTYVFGTGTKVTVL
notes: as for B1
